Test results reported in patent US20230079150A1, “METHODS FOR PREVENTION OR TREATMENT OF VIRUS-INDUCED ORGAN INJURY OR FAILURE WITH IL-22 DIMER” (priority 2020, published 2023).
Read-outs that look alike come from different tables or passages of the source.

Assays:
C57BL/6 mice [1] = assay: LPS acute lung injury mouse model: BAL protein (Bradford assay); format: in vivo; settings: F-652 4 μg i.v., day 4
Description: (§1) After approval from the Tulane University, Institutional Animal Care and Use Committee (protocol ID 607), equal numbers of male and female, 6-8 week old C57BL/6 mice (Charles River Laboratories, Cambridge, Mass.) were given acute lung injury (ALI) via intra-tracheally administered LPS. After obtaining appropriate depth of anesthesia using isoflurane, the high-dose LPS group (HDG) received 100 μg of LPS administered intra-tracheally. Approximately 30 minutes after LPS administration, 4 μg of F-652 was administered via tail vein injection (n=11), then compared to animals receiving sham injection (n=8) with phosphate-buffered saline (PBS). In the low-dose LPS group (LDG), 33.3 μg of LPS was administered intra-tracheally. F-652 was again administered at 30 minutes (n=9) and compared to sham injected animals (n=9). […]
The BAL fluid was then centrifuged at 500×gravity for 5 minutes. […] To quantify protein in the BAL supernatant, a Bradford protein assay (Bio-Rad Laboratories) was performed. Protein was quantified by measuring absorbance at 595 nm on a BMG Labtech FLUOstar Optima plate reader. […] Human IL-22 was measured using an IL-22 Human ELISA kit (ThermoFisher Scientific). Mouse IL-22 was measured using an IL-22 Mouse/Rat Quantikine ELISA kit (R&D Systems).

[2] = test system: H1N1 influenza (A/PR8 strain); format: in vivo, C57BL/6 mice; settings: aged mice; data not shown
[3] = test system: H1N1 influenza (A/PR8 strain); format: in vivo, C57BL/6 mice; settings: aged hosts; treated for 3 weeks
[4] = test system: H1N1 influenza (A/PR8 strain)
[5] = test system: H1N1 influenza (A/PR8 strain); format: in vivo, C57BL/6 mice
SARS-CoV-2 = format: cell-based, human; settings: for sgm-N RNA copies compared to no F-652 treatment: MOI 0.1, 48 hours post challenge
C57BL/6 mice [6] = assay: LPS acute lung injury mouse model: lung RNA-seq pathway analysis; format: in vivo; settings: high-dose LPS injury; lung tissue
Description: as §1, with “(PBS).” for “(PBS). In the low-dose LPS group (LDG), 33.3 μg of LPS was administered intra-tracheally. F-652 was again administered at 30 minutes (n=9) and compared to sham injected animals (n=9).”
Lung tissue was homogenized in Trizol buffer (Life Technologies) and total RNA extraction was performed according to Trizol manufacturer's instructions. […] RNA quantity and quality were assessed using NanoDrop and Agilent RNA ScreenTape with Agilent 4150 TapeStation system. SMART-Seq Stranded total RNA sample prep kit (Takara Bio USA, Inc.) was used for library preparation as specified in the user manual, followed by Agilent DNA 1000 kit validation with Agilent 4150 TapeStation system and quantification by Qubit 2.0 fluorometer. […] Cluster generation and 1×75 bp single read single-indexed sequencing was performed by High-Output kit v2.5 (75 cycles) on Illumina NextSeq 550. Raw reads were processed and mapped. […]

B1: F-652: recombinant IL-22 dimer consisting of two monomeric subunits each comprising a sequence shown in SEQ ID NO: 24 (protein)
chain 1: APISSHCRLDKSNFQQPYITNRTFMLAKEASLADNNTDVRLIGEKLFHGVSMSERCYLMKQVLNFTLEEVLFPQSDRFQPYMQEVVPFLARLSNRLSTCHIEGDDLHIQRNVQKLKDTVKKLGESGEIKAIGELDLLFMSLRNACIGSGGGSGGGGSGGGGSVECPPCPAPPVAGPSVFLFPPKPKDTLMISRTPEVTCVVVDVSHEDPEVQFNWYVDGVEVHNAKTKPREEQFNSTFRVVSVLTVVHQDWLNGKEYKCKVSNKGLPASIEKTISKTKGQPREPQVYTLPPSREEMTKNQVSLTCLVKGFYPSDIAVEWESNGQPENNYKTTPPMLDSDGSFFLYSKLTVDKSRWQQGNVFSCSVMHEALHNHYTQKSLSLSPGK
chain 2: B1 chain 1
modifications: homodimer
C57BL/6 mice [1]; high-dose LPS injury, sham 0.38
  BAL protein: 0.55 µg/µL
C57BL/6 mice [1]; low-dose LPS injury, sham 0.25
  BAL protein: 0.15 µg/µL
[2]
  CD8+ cells and KRT5+ cells in lungs compared to PBS control: clear trend of decrease
[3]
  lung histology (H&E, Masson's Trichrome, Sirius Red, PAS): ameliorates much of the H1N1-induced pathology
[4]; aged mice, Days 21-64 post-infection, F-652 200 μg/kg once weekly for 3 weeks, no PBS treated mice lost
  mice lost during the treatment phase: 3 mice
[4]; aged mice, F-652 200 μg/kg once weekly, 6-week treatment group
  mice lost during the treatment phase: 2 mice
[4]; young groups, F-652 200 μg/kg once weekly
  mice lost during the treatment phase: no mice were lost
[4]; young or aged mice, Days 21-64 post-infection
  body weight, F-652 vs PBS treatment groups: no notable differences
[5]; aged H1N1 infected mice, baseline/tidal breathing, 3-week treatment
  tissue dampening (G) by FOT: less resistance in small airways
[5]; aged mice
  static compliance (Cst) from PV loops relative to PBS controls: increased static compliance
[5]; following airway recruitment maneuver, aged and young
  impedance following maximization of available lung volume: has no effect
SARS-CoV-2; post-treatment, 100 ng/mL F-652 basolaterally on the day post-viral infection
  sgm-N RNA copies compared to no F-652 treatment: significantly lower
SARS-CoV-2; pre-treatment and post-treatment with 100 ng/mL F-652
  mapping of RNA-seq reads to the SARS-CoV-2 genome compared to no F-652 treatment: reduced mapping
SARS-CoV-2; pre-treatment, 100 ng/mL F-652 for 18 hours before infection
  sgm-N RNA copies compared to no F-652 treatment: significantly lower
C57BL/6 mice [6]
  Macrophage Inflammatory Protein-1β (CCL4) expression (RNA-seq): decrease
  Tnc, COL1a1, Col6a3 and Col1a2 expression (RNA-seq): increased
